Assay results from the supplement of paper PMC12783771.
Changes are numbered by the printed parent chain. ± gives the standard deviation of the averaged measurements.

B1: library; a variant is named by its letters at X, in order (parent)
chain: MNIQIGELAKRTACPVVTIRFYEQEGLLPPPGRSRGNFRLYGEEHVERLQFIRHCRSLDMPLSXVRTLLSYRKRPDQDCGEVXMLLDEHIRQVESRIGALLELXHHXVELREACSGARPAQSCGILQXLSXCVCXTRGTTAHXSD
B2: library; a variant is named by its letters at X, in order (parent)
chain: B1 chain with X64D, X104K, X107L

Tests used:
[1] = variants of: B1; assay: sfGFP reporter fluorescence (15 h) (µM FITC); higher = higher leak; details: library round: Round 3; ligand: none
Method in brief: (§1)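 Values are endpoint sfGFP fluorescence given as µM FITC equivalents. Fluorescence was read at 485/528 nm on a Synergy Neo2, and FITC standard curves were prepared in 50 mM sodium borate pH 8.5. Reactions of 1 μL combined BL21 Star (DE3) PANOx-SP extract, pPbrR-sfGFP reporter, 30 μg/mL GamS and linear PbrR templates (PCR-made, Echo-normalized to 5 nM), with 1 µM lead chloride, 30 µM zinc acetate or no metal, for 15 hr at 30 °C.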

[2] = variants of: B1; assay: sfGFP reporter fluorescence (15 h) (µM FITC); higher = stronger transcriptional activation; details: library round: Round 3
Method in brief: as §1

[3] = variants of: B2; assay: sfGFP reporter fluorescence (15 h) (µM FITC); higher = higher leak; details: library round: Round 2; ligand: none
Procedure: (§2)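 Cell-free biosensing: 1 µL Echo-assembled CFE reactions with linear PbrR variant templates (5 nM) and pPbrR-sfGFP reporter, with 1 µM Pb, 30 µM Zn or no ligand; endpoint sfGFP fluorescence after 15 h at 30 °C calibrated as µM FITC. Round 2 ML-predicted PbrR mutants; up to 3 biological replicates.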

[4] = variants of: B2; assay: sfGFP reporter fluorescence (15 h) (µM FITC); higher = stronger transcriptional activation; details: library round: Round 2
Procedure: as §2

| Variant | sfGFP reporter fluorescence [1] | sfGFP reporter fluorescence ([2]; ligand: 1 µM Pb) | sfGFP reporter fluorescence ([2]; ligand: 30 µM Zn) | sfGFP reporter fluorescence [3] | sfGFP reporter fluorescence ([4]; ligand: 1 µM Pb) | sfGFP reporter fluorescence ([4]; ligand: 30 µM Zn) |
| --- | --- | --- | --- | --- | --- | --- |
| DTKLGSPL | 0.0411 ± 0.0014 | 0.1583 ± 0.0015 | 0.196 ± 0.019 | – | – | – |
| DTKLGDAL Q121A | 0.04099 ± 0.00034 | 0.104 ± 0.004 | 0.329 ± 0.015 | – | – | – |
| DTKLGSDP Q121A H142A | 0.0408 ± 0.0014 | 0.106 ± 0.0044 | 0.472 ± 0.015 | – | – | – |
| DTKLGHPY Q121A | 0.0423 ± 0.0015 | 0.206 ± 0.019 | 0.289 ± 0.021 | – | – | – |
| KTVLIDDP P61T | 0.0467 ± 0.002 | 0.106 ± 0.0053 | 0.251 ± 0.023 | – | – | – |
| DTKLGSPP V108L | 0.0404 ± 0.0007 | 0.127 ± 0.0092 | 0.186 ± 0.0066 | – | – | – |
| DTKLGSPP Q121A | 0.0408 ± 0.0027 | 0.186 ± 0.0074 | 0.3204 ± 0.0016 | – | – | – |
| DTKLGAPW Q121A | 0.0438 ± 0.0019 | 0.216 ± 0.0053 | 0.277 ± 0.013 | – | – | – |
| DTKLGMPP V108L | 0.0413 ± 0.00089 | 0.144 ± 0.0074 | 0.187 ± 0.0045 | – | – | – |
| DTKLGCDA Q121A | 0.0408 ± 0.00071 | 0.107 ± 0.0045 | 0.117 ± 0.0042 | – | – | – |
| DTKLGSRP V108L | 0.0395 ± 0.0015 | 0.117 ± 0.0088 | 0.28 ± 0.012 | – | – | – |
| DTKLGCDP V108L Q121A | 0.043 ± 0.0018 | 0.117 ± 0.0039 | 0.116 ± 0.0027 | – | – | – |
| DTKLGSDP V108L H142A | 0.0396 ± 0.00089 | 0.076 ± 0.0048 | 0.278 ± 0.029 | – | – | – |
| DTKLGDPR V108L | 0.043 ± 0.0024 | 0.0866 ± 0.0042 | 0.142 ± 0.0031 | – | – | – |
| DVVLGDDR H106A | 0.043 ± 0.0021 | 0.126 ± 0.007 | 0.0489 ± 0.0029 | – | – | – |
| DTKLGAPW V108L | 0.0408 ± 0.002 | 0.146 ± 0.0032 | 0.1781 ± 0.0015 | – | – | – |
| DTKLGDRR E109L | 0.0416 ± 0.0019 | 0.103 ± 0.005 | 0.224 ± 0.0067 | – | – | – |
| DTKLGSPP V108L Q121A | 0.0413 ± 0.00089 | 0.2 ± 0.0066 | 0.337 ± 0.004 | – | – | – |
| DTKLGMAP V108L | 0.0403 ± 0.00095 | 0.0673 ± 0.0042 | 0.288 ± 0.018 | – | – | – |
| DTKLGCDL Q121A | 0.0413 ± 0.00047 | 0.101 ± 0.0031 | 0.103 ± 0.0093 | – | – | – |
| SGDDW V108L | – | – | – | 0.0515 ± 0.0023 | 0.0672 ± 0.0033 | 0.247 ± 0.031 |
| NGTDP S115G V133P | – | – | – | 0.0474 ± 0.0012 | 0.0633 ± 0.00085 | 0.461 ± 0.052 |

| Variant | sfGFP reporter fluorescence [1] | sfGFP reporter fluorescence ([2]; ligand: 1 µM Pb) | sfGFP reporter fluorescence ([2]; ligand: 30 µM Zn) | sfGFP reporter fluorescence [3] | sfGFP reporter fluorescence ([4]; ligand: 1 µM Pb) | sfGFP reporter fluorescence ([4]; ligand: 30 µM Zn) |
| --- | --- | --- | --- | --- | --- | --- |
| NGDAP S130A T136A | – | – | – | 0.0512 ± 0.001 | 0.0834 ± 0.0067 | 1.11 ± 0.13 |
| NGTAT | – | – | – | 0.0539 ± 0.0037 | 0.0908 ± 0.0051 | 0.937 ± 0.052 |
| SGMAP | – | – | – | 0.0668 ± 0.0035 | 0.0819 ± 0.0034 | 0.586 ± 0.076 |
| NGDAT L85I | – | – | – | 0.0427 ± 0.0024 | 0.0595 ± 0.0027 | 0.809 ± 0.019 |
| NADAP K104R | – | – | – | 0.123 ± 0.0024 | 0.419 ± 0.072 | 2.34 ± 0.033 |
| NGYAP K104R | – | – | – | 0.0664 ± 0.0054 | 0.0679 ± 0.0057 | 0.698 ± 0.11 |
| TGDDY I125L | – | – | – | 0.0486 ± 0.0014 | 0.0429 ± 0.0049 | 0.0494 ± 0.0015 |
| NGDAP P61N V108E | – | – | – | 0.0745 ± 0.0048 | 0.129 ± 0.01 | 1.48 ± 0.14 |
| NGDRP P61N D64A | – | – | – | 0.111 ± 0.007 | 0.221 ± 0.0096 | 1.54 ± 0.25 |
| TGDDA E25V | – | – | – | 0.0619 ± 0.0073 | 0.072 ± 0.0079 | 0.252 ± 0.031 |
| TGCAP Q121A | – | – | – | 0.0482 ± 0.0011 | 0.0978 ± 0.0067 | 0.156 ± 0.0046 |
| NGDDP P61N D64K V108M | – | – | – | 0.154 ± 0.014 | 0.461 ± 0.026 | 2.33 ± 0.24 |
| NGDDW R74Q G138A | – | – | – | 0.0503 ± 0.0034 | 0.05902 ± 0.00051 | 0.58 ± 0.017 |
| TGDDP R96A E109A | – | – | – | 0.0459 ± 0.0014 | 0.0588 ± 0.00089 | 0.144 ± 0.02 |
| NHDDL E109L I125L | – | – | – | 0.048 ± 0.0018 | 0.044 ± 0.0027 | 0.047 ± 0.0027 |
| NGDDW L110I S115G | – | – | – | 0.0528 ± 0.0019 | 0.0476 ± 0.0019 | 0.325 ± 0.019 |
| NGADT C134V | – | – | – | 0.103 ± 0.013 | 0.155 ± 0.03 | 2.64 ± 0.21 |
| NGYAP S95G | – | – | – | 0.0664 ± 0.003 | 0.0795 ± 0.0044 | 1.03 ± 0.072 |
| SGDDP L85Y K104V | – | – | – | 0.0628 ± 0.0056 | 0.0671 ± 0.0055 | 0.248 ± 0.027 |
| NGDDP P61E L62I D64K | – | – | – | 0.125 ± 0.015 | 0.249 ± 0.094 | 1.34 ± 0.17 |
| NGADY V133A | – | – | – | 0.0753 ± 0.0056 | 0.124 ± 0.0081 | 1.15 ± 0.1 |
| NGDDP P61E D64K E112H | – | – | – | 0.157 ± 0.027 | 0.377 ± 0.021 | 1.95 ± 0.22 |
